Patent US20120058906A1 (published 2012)
Blank lines part the entries; values can stand above or below the binder they belong to.

Assays:
[1] = biological target: T1, rHuman Erythropoietin R/Fc Chimera, CF (R&D Systems Cat#963-ER) (human, UniProt P19235 25-250); test: ECL (MSD Multi-Spot) binding assay, antigen spotted on plate; Fab 120 nM; blank spot 363;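 further: blank spot per well as comparator with Hit at signal to blank ratio of 4 or more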
T1 construct: Bought Fc chimera; also called EPO R/Fc; Epo R; Fc part of the bought chimera not given
T1 sequence: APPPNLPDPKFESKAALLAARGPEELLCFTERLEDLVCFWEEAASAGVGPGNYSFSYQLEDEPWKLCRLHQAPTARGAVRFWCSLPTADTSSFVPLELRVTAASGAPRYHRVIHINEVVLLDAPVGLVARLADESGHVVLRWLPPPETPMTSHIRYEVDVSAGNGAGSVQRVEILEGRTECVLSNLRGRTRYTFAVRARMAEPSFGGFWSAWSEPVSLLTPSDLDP

[2] = biological target: T2, Recombinant Human DLL4 (R&D Systems Cat#1506-D4/CF) (human, UniProt Q9NR61 27-524); test: as above
T2 construct: Bought recombinant protein; also called delta-like protein 4; rHuman DLL4

[3] = biological target: T3, rHuman Notch-1/Fc Chimera, CF (R&D Systems Cat#3647-TK) (human, UniProt P46531 19-526); test: as above
T3 construct: Bought Fc chimera; Fc part of the bought chimera not given

[4] = biological target: T4, rHuman CD44/Fc Chimera, CF (R&D Systems Cat#3660-CD) (human, UniProt P16070 21-220); test: as above
T4 construct: Bought Fc chimera; Fc part of the bought chimera not given

[5] = biological target: T5, rHuman P-Cadherin/Fc Chimera, CF (R&D Systems Cat#861-PC) (human, UniProt P22223 108-654); test: as above
T5 construct: Bought Fc chimera; also called CDH3; Fc part of the bought chimera not given

[6] = biological target: T6, rHuman IGF-1 sR (insulin-like growth factor-1 soluble receptor), CF (R&D Systems Cat#391-GR) (human, UniProt P08069 31-932); test: ECL (MSD multi-spot), antigen on plate, Fab 50 nM
T6 construct: Bought soluble receptor; also called IGF-R1

[7] = biological target: T7, rHuman IGF-1 sR, (IGF-1 sR), CF (R&D Systems Cat#391-GR) (human, UniProt P08069 31-932); test: MSD ECL multi-spot plate; Fab 32.5 nM; blank spot 473;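 further: blank spot per well as comparator with Hit at signal to blank ratio of 4 or more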
T7 construct: also called insulin-like growth factor-1 soluble receptor; IGF-R1

[8] = biological target: T8, rHuman Erythropoietin R/Fc Chimera, CF (R&D Systems Cat#963-ER) (human, UniProt P19235 25-250); test: as above
T8 construct: also called EPO R/Fc; Epo R; Fc part of the bought chimera not given
T8 sequence: T1 sequence

[9] = biological target: T9, Recombinant Human DLL4 (R&D Systems Cat#1506-D4/CF) (human, UniProt Q9NR61 27-524); test: as above
T9 construct: also called delta-like protein 4

[10] = biological target: T10, rHuman ErbB2/Fc Chimera, CF (R&D Systems Cat#1129-ER) (human, UniProt P04626 23-652); test: as above
T10 construct: also called HER2/neu; human epidermal growth factor 2 receptor; Fc part of the bought chimera not given

[11] = biological target: T11, rHuman EGF R/Fc Chimera, CF (R&D Systems Cat#344-ER) (human, UniProt P00533 25-645); test: as above
T11 construct: also called epidermal growth factor receptor; Fc part of the bought chimera not given

[12] = biological target: T12, rHuman HGF R/c-MET/Fc Chimera, CF (R&D Systems Cat#358-MT/CF) (human, UniProt P08581 25-932); test: as above
T12 construct: also called HGF R/Fc; hepatocyte growth factor receptor; Fc part of the bought chimera not given

[13] = biological target: T13, rHuman Notch-1/Fc Chimera, CF (R&D Systems Cat#3647-TK) (human, UniProt P46531 19-526); test: as above
T13 construct: Fc part of the bought chimera not given

[14] = biological target: T14, rHuman CD44/Fc Chimera, CF (R&D Systems Cat#3660-CD) (human, UniProt P16070 21-220); test: as above
T14 construct: Fc part of the bought chimera not given

[15] = biological target: T15, rHuman IGF-1 sR (IGF-1 sR), CF (R&D Systems Cat#391-GR) (human, UniProt P08069 31-932); test: MSD ECL multi-spot plate, antigen immobilized; Fab 200 nM; blank spot 529
T15 construct: Purchased soluble receptor; also called insulin-like growth factor-1 soluble receptor; IGF-R1

[16] = biological target: T16, rHuman P-Cadherin/Fc Chimera, CF (R&D Systems Cat#861-PC) (human, UniProt P22223 108-654); test: as above
T16 construct: Purchased Fc chimera; not shown: Fc portion of the purchased chimera

[17] = biological target: T17, Recombinant Human DLL4 (R&D Systems Cat#1506-D4/CF) (human, UniProt Q9NR61 27-524); test: as above
T17 construct: Purchased recombinant protein; also called delta-like protein 4

[18] = biological target: T18, rHuman Notch-1/Fc Chimera, CF (R&D Systems Cat#3647-TK) (human, UniProt P46531 19-526); test: as above
T18 construct: Purchased Fc chimera; not shown: Fc portion of the purchased chimera

[19] = biological target: T19, rHuman CD44/Fc Chimera, CF (R&D Systems Cat#3660-CD) (human, UniProt P16070 21-220); test: as above
T19 construct: Purchased Fc chimera; not shown: Fc portion of the purchased chimera

B1: Fab VH6-1_IGHD3-3*01_IGHJ4*01 & V4-3_IGLJ4*01 (Fab, V domains shown)
VH: QVQLQQSGPGLVKPSQTLSLTCAISGDSVSSNSAAWNWIRQSPSRGLEWLGRTYYRSKWYNDYAVSVKSRITINPDTSKNQFSLQLNSVTPEDTAVYYCAREYYDFWSGYYTDYFDYWGQGTLVTVSS
VL: QPVLTQPTSLSASPGASARLTCTLRSGINLGSYRIFWYQQKPESPPRYLLSYYSDSSKHQGSGVPSRFSGSKDASSNAGILVISGLQSEDEADYYCMIWHSSASFVFGGGTQLIIL
notes: Tested as a Fab made in E. coli; also called IGHV6-1*01
ECL signal [1]: 431
ECL signal [2]: 938
ECL signal [3]: 472
ECL signal [4]: 442
ECL signal [5]: 450

B3: Fab VH1-8_IGHD2-2*01_IGHJ6*01 & L12_IGKJ1*01 (Fab, V domains shown)
VH: QVQLVQSGAEVKKPGASVKVSCKASGYTFTSYDINWVRQATGQGLEWMGWMNPNSGNTGYAQKFQGRVTMTRNTSISTAYMELSSLRSEDTAVYYCARGGYCSSTSCYADYYYYYGMDVWGQGTTVTVSS
VL: not shown
ECL signal [7]: 561 ECL signal
ECL signal [8]: 673 ECL signal
ECL signal [9]: 2990 ECL signal
ECL signal [10]: 556 ECL signal
ECL signal [11]: 645 ECL signal
ECL signal [12]: 525 ECL signal
ECL signal [13]: 706 ECL signal
ECL signal [14]: 573 ECL signal

Results, then the binder that gave them:

ECL signal [6]: 399 ECL signal
B2: Fab VH1-46_IGHD6-6*01_IGHJ1*01_S102A_S103P_S104Y_H111Y & L6_IGKJ1*01 (Fab, V domains shown)
VH: QVQLVQSGAEVKKPGASVKVSCKASGYTFTSYYMHWVRQAPGQGLEWMGIINPSGGSTSYAQKFQGRVTMTRDTSTSTVYMELSSLRSEDTAVYYCAREEYAPYSAEYFQYWGQGTLVTVSS
VL: not shown
notes: Fab made in E. coli; The heavy chain also carries CH1 with Flag and His tags from Plasmid A, and the light chain carries kappa CL from Plasmid C

ECL signal [15]: 1110 ECL signal
ECL signal [16]: 815 ECL signal
ECL signal [17]: 29800 ECL signal
ECL signal [18]: 1330 ECL signal
ECL signal [19]: 895 ECL signal
B4: Fab VH5-51_IGHD5-18*01>3_IGHJ4*01_G100R & V3-4_IGLJ1*01 (Fab, V domains shown)
VH: EVQLVQSGAEVKKPGESLKISCKGSGYSFTSYWIGWVRQMPGKGLEWMGIIYPGDSDTRYSPSFQGQVTISADKSISTAYLQWSSLKASDTAMYYCARRRYSYGYDYFDYWGQGTLVTVSS
VL: QTVVTQEPSFSVSPGGTVTLTCGLSSGSVSTSYYPSWYQQTPGQAPRTLIYSTNTRSSGVPDRFSGSILGNKAALTITGAQADDESDYYCVLYMGSGISYVFGTGTKVTVL
notes: It was expressed as a Fab: CH1 with tags from Plasmid A and lambda CL from Plasmid E; also called Fab No. 23
